The MegaScale stability set (Tsuboyama et al. 2023)

B1: r11_951_TrROS_Hall (parent)
chain: KKKYVIKVYFEDTGKEVEIEAESKEEALEAAKRLAEELGLKIKKVEIYP

Variants of: B1
Assay: folding stability dG (cDNA display proteolysis); higher = more stable
Conditions: PBS, room temperature

Folding stability dG [kcal/mol] of substitutions, site by site:
K41: E 4.16; N 4.28; F 4.44; T 4.32; D 4
K7: L 4.09; D 2.75; P 1.45; E 3.12; R 4.64; M 4.1; G 3.32; Q 3.75; N 3.9; C 3.91; A 3.95; S 3.73
E29: M 4.77; D 4.44; S 4.56; Q 4.22; H 4.51; C 4.58; V 4.53
K2: S 4.52; T 4.46; H 4.51; E 4.29; A 4.43; N 4.24
E37: Q 4.77; V 4.6; F 4.73; D 4.29; K 4.68; I 4.61; N 4.42; R 4.69; T 4.61; P 2.86
I6: A 4.12; H 2.82; F 4.55; T 3.59; K 0.69; L 4.34; G 3.82
A21: I 4.44; N 3.84; Q 3.77; L 4.24; V 4.45; T 4.37; K 4.29; G 4.28; R 4.32
P49: R 4.5; Q 4.71; Y 4.78; T 4.62; W 4.59
A30: P 2.07; D 4.16; I 4.49; L 4.66; V 4.44; H 4.57; K 4.33; Y 4.89; C 4.16
E18: C 4.4; Q 4.5; G 4.06; N 4.16; T 4.3; W 4.3
K1: A 4.25; F 4.54; W 4.38; Q 4.6; R 4.71; L 4.52; P 4.64
E22: T 4.23; G 4.32; W 4.64; K 4.05; M 4.07; R 4.18; P 4.4; N 4.38
F10: Q 2.23; W 4.44; M 3.73; D 2.86; S 3.13; N 2.58
Y48: T 4.52; E 4.1; Q 4.37
L40: Y 4.88; E 3.99; R 4.27; T 3.92; Q 4.07; N 3.66; C 3.95; H 4.12
Y9: I 4.35; C 3.95; A 3.91; E 4.28; N 3.87
E25: D 4.58; M 4.32; Q 4.18; L 4.18; S 4.12; N 4.16; Y 4.33
V5: C 3.83; Y 4.37; S 4.3; D 3; T 4.47; R 4.66
L28: M 4.46; R 4.23; F 4.31; K 4.28; I 4.42; N 4.33; Q 4.31; W 4.64
K15: A 4.22; S 4.28; Q 4.27; W 4.23; P 4.29; N 4.63
V17: D 3.74; Y 4.36; C 4.25
L38: E 3.89; R 4.34; V 4.3; Q 4.21; A 4.52; T 4.16
E46: I 4.47; Q 4.26; A 4.32
S23: Q 3.89; F 4.26; H 4.08; L 4.01; P 2.12; T 4.35; Y 3.98
I47: D 3.99; F 4.32; T 4.17; P 4.04; L 4.48; M 4.53; W 4.49
E16: K 4.23; Y 4.45; C 4.05; I 4.55; G 4.35; W 4.48; D 4.62; M 4.28; H 4.29
E36: P 3.05; Q 4.66; R 4.91; L 4.68; C 4.39; D 4.42
L34: F 4.52; T 4.25; H 4.22; I 4.27; V 4.51; A 4.16
E26: N 4.33; I 4.22; M 4.38; Q 4.36; S 4.39; K 4.24; V 4.24; D 4.32; C 4.23; L 4.46; P 3.07
V8: T 2.91; A 3.59; F 4.61; E 0.978; L 4.25; Q 1.52
K32: Q 4.38; I 4.34; D 4.21; T 4.41; M 4.68; S 4.42; G 4.13; L 4.55
A31: V 4.45; G 4.15; Q 2.81; L 4.21; K 2.42; D 0.894
A35: W 4.13; I 3.99; R 3.55; L 3.88; C 4.08; S 4.35; Y 3.78; E 4.05
K3: R 4.26; V 4.24; Y 4.54; W 4.83; D 3.86; N 4.11; L 4.63; I 4.27
A27: Y 3.79; C 4.23; E 1.78; L 4.34; N 2.01
I19: P 0.94; E 3.36; W 4.51; C 4.1; R 3.57; T 3.98; N 2.66; K 3.18; L 4.5
T13: G 4.52; E 4.4; A 4.42; P 4.48; D 4.11; N 4.58; L 4.29; I 4.41
G14: P 4.26; S 4.66; F 4.73; Q 4.39; I 4.58; V 4.62; D 4.37
R33: F 4.38; I 4.28; S 4.2; G 4.21; K 4.39
I42: K 2.18; G 2.51; W 4.05; D 2.38; C 3.57; M 3.99; T 2.88
E20: V 4.42; I 4.38; P 4.29; Q 4.43; L 4.36; R 4.29; F 4.25; A 4.33
D12: E 4.31; G 4.54; T 4.5; A 4.41; I 4.66; F 4.64
K44: I 4.21; M 4.31; R 4.4; A 4.26; Y 4.34
K43: E 4.35; Q 4.26; A 4.4; R 4.64; V 4.22; I 4.43; S 4.15; M 4.44
Y4: M 3.98; N 2.92; S 3.36; K 2.9; L 3.93; E 2.73; Q 3.55; A 3.08; H 3.58
V45: K 3.16; M 4.47; T 4.16; S 3.94; N 3.32
K24: H 4.45; M 4.46; Q 4.38; Y 4.5; A 4.55; R 4.3; P 4.19; G 4.41; S 4.29
E11: N 4.67; I 4.86; F 4.94; P 3.62
G39: A 4.49; M 4.38; Y 3.82; Q 4.37; S 4.26
